We go through 2 molecules from patent US20150004190A1 (INSTITUT NATIONAL DE LA SANTE ET DE LA RECHERCHE MEDICALE …, published 2015).

Holding throughout (experiment): cell-based or functional assay
The target in assay [1] is T1, HIV-1 R5 tropic QH0692.42 envelope (on pseudovirus) (HIV-1 QH0692.42).
Assay [2] deals with HIV-1 JR-CSF envelope (on virions) (HIV-1 JR-CSF (clade B, R5 tropic), UniProt P20871 32-848).
Assay [3] addresses T1, HIV-1 R5 tropic QH0692.42 envelope (on …). The source holds these as a separate data set.

B1: 2F5 IgA2 (antibody, V domains shown)
VH: RITLKESGPPLVKPTQTLTLTCSFSGFSLSDFGVGVGWIRQPPGKALEWLAIIYSDDDKRYSPSLNTRLTITKDTSKNQVVLVMTRVSPVDTATYFCAHRRGPTTLFGVPIARGPVNAMDVWGQGITVTI
VL: ALQLTQSPSSLSASVGDRITITCRASQGVTSALAWYRQKPGSPPQLLIYDASSLESGVPSRFSGSGSGTEFTLTISTLRPEDFATYYCQQLHFYPHTFGGGTRVDVR
In the case of B1, in assay [1], the “IC50 times lower than that of 2F5 IgG1, TZM-bl assay” value is 8.33 fold and the “IC90 times lower than that of 2F5 IgG1, TZM-bl assay” value worked out at 23.8 fold. Besides, in assay [2], the “IC50 times lower than 2F5 IgG1, CEM-CCR5+ neutralization” value amounted to 33 fold and the “IC99 times lower than 2F5 IgG1, CEM-CCR5+ neutralization” value was 20 fold. Further, the “IC50%, neutralization of envelope pseudotyped HIV-1 in TZM-bl assay (luciferase)” value in assay [3] is 0.024 nM.

B2: 2F5 IgG1 (antibody, V domains shown)
VH: B1 VH
VL: B1 VL
Turning to B2, in assay [3], the “IC50%, neutralization of envelope pseudotyped HIV-1 in TZM-bl assay (luciferase)” value stood at 0.2 nM.
